Assay results taken from publication PMC3679108, “A Novel Glucagon-Related Peptide (GCRP) and Its Receptor GCRPR Account for Coevolution of Their Family Members in Vertebrates” (PLoS ONE, 2013).
Where two headings read alike, the source gives them in different places. Ends that are not written are not given here.

Legend:
[1] = biological target: Xenopus GCRP receptor (Xenopus)
[2] = biological target: chicken GCRP receptor (chicken)
[3] = biological target: human GCGR (human) (UniProt P47871)
[4] = biological target: human GIPR (human) (UniProt P48546)
Sequence of human GIPR (human) (P48546 22-466): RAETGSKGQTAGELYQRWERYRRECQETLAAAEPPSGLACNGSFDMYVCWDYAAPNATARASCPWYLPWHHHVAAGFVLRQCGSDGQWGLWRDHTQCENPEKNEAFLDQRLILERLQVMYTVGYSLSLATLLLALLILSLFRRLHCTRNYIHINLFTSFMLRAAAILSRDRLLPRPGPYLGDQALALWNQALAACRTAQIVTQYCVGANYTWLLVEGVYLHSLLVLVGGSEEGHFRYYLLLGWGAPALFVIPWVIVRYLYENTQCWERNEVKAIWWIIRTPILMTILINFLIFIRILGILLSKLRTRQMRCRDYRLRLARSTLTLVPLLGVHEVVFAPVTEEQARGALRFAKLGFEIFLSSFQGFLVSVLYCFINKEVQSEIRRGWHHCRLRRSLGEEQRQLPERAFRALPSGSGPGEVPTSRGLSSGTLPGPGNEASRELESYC

[5] = biological target: human GLP2R (human) (UniProt O95838)
Sequence of human GLP2R (human) (O95838 whole entry): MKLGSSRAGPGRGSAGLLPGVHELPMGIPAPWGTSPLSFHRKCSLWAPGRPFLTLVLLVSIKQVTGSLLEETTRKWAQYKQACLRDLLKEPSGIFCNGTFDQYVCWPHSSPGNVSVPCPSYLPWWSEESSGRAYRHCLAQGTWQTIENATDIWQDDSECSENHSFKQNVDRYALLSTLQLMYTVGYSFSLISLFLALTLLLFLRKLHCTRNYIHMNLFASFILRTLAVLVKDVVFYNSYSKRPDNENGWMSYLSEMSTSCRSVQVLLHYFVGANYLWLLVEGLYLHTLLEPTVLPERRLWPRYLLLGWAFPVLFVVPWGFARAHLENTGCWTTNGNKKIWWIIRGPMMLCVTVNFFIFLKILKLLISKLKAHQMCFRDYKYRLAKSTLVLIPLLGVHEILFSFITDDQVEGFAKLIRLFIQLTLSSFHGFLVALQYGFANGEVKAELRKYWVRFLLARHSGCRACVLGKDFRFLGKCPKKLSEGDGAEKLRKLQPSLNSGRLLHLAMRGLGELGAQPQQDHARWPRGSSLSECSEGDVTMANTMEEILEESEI

[6] = biological target: human GLP1R (human) (UniProt P43220)
Sequence of human GLP1R (human) (P43220 24-463): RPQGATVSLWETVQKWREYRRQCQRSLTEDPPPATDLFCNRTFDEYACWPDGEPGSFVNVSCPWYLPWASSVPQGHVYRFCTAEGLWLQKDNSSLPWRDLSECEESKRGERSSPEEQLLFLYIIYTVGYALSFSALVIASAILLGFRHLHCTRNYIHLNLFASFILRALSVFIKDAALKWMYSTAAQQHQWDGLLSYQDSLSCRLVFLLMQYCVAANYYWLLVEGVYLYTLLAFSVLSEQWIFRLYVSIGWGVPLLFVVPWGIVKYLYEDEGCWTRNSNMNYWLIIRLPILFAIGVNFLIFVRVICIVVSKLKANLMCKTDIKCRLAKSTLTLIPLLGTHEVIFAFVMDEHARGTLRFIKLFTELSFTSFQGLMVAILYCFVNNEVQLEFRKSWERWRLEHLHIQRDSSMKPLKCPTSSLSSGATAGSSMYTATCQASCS

[7] = biological target: medaka GCRP receptor (medaka)
[8] = biological target: chicken GCRP receptor (chicken); remark: listed apart in the source
[9] = biological target: chimeric chGCRPR/huGLP1R (chicken | human) (UniProt P43220)
Sequence of chimeric chGCRPR/huGLP1R (chicken | human) (P43220 whole entry, change not shown): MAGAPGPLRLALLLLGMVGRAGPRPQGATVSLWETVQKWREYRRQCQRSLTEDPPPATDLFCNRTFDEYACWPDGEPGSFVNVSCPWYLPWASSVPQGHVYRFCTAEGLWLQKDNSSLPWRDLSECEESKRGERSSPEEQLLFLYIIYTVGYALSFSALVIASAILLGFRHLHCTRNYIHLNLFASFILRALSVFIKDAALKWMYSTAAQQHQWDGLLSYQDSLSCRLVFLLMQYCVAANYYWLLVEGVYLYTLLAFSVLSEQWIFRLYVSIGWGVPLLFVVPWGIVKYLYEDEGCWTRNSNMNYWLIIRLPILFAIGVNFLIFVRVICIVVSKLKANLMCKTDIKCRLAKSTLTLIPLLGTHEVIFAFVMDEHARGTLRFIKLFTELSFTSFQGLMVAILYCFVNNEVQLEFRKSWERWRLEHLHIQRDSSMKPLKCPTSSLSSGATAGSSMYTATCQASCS

[10] = biological target: chimeric chGCRPR/chGLP1R (chicken)
[11] = biological target: chicken GLP1R (chicken)
[12] = biological target: chicken GCRP receptor (chicken); experiment: radioligand binding; competitive displacement on HEK293T cells transfected with GCRPR (300 ng DNA/well, 12-well plates); 100,000 cpm 125I-chGCRP without or with various concentrations of cold peptides, 1 h, binding buffer (serum-free DMEM with 0.1% BSA, pH 7.4); IC50 by nonlinear regression
[13] = biological target: chicken GCRP receptor (chicken); remark: listed apart in the source
[14] = biological target: chicken GCRP receptor (chicken); experiment: radioligand binding; competitive displacement on HEK293T cells transfected with GCRPR (300 ng DNA/well, 12-well plates); 100,000 cpm 125I-chGCRP without or with various concentrations of cold peptides, 1 h, binding buffer (serum-free DMEM with 0.1% BSA, pH 7.4); IC50 by nonlinear regression; remark: listed apart in the source
[15] = biological target: medaka GCRP receptor (medaka); remark: listed apart in the source
[16] = biological target: medaka GCRP receptor (medaka); experiment: radioligand binding; competitive displacement on HEK293T cells transfected with GCRPR (300 ng DNA/well, 12-well plates); 100,000 cpm 125I-chGCRP without or with various concentrations of cold peptides, 1 h, binding buffer (serum-free DMEM with 0.1% BSA, pH 7.4); IC50 by nonlinear regression
[17] = biological target: medaka GCRP receptor (medaka); remark: listed apart in the source
[18] = biological target: medaka GCRP receptor (medaka); experiment: radioligand binding; competitive displacement on HEK293T cells transfected with GCRPR (300 ng DNA/well, 12-well plates); 100,000 cpm 125I-chGCRP without or with various concentrations of cold peptides, 1 h, binding buffer (serum-free DMEM with 0.1% BSA, pH 7.4); IC50 by nonlinear regression; remark: listed apart in the source
[19] = biological target: Xenopus GCRP receptor (Xenopus); experiment: as above
[20] = biological target: Xenopus GCRP receptor (Xenopus); remark: listed apart in the source
[21] = biological target: Xenopus GCRP receptor (Xenopus); experiment: radioligand binding; competitive displacement on HEK293T cells transfected with GCRPR (300 ng DNA/well, 12-well plates); 100,000 cpm 125I-chGCRP without or with various concentrations of cold peptides, 1 h, binding buffer (serum-free DMEM with 0.1% BSA, pH 7.4); IC50 by nonlinear regression; remark: listed apart in the source

Sequence of human GCGR (human) (P47871 26-477): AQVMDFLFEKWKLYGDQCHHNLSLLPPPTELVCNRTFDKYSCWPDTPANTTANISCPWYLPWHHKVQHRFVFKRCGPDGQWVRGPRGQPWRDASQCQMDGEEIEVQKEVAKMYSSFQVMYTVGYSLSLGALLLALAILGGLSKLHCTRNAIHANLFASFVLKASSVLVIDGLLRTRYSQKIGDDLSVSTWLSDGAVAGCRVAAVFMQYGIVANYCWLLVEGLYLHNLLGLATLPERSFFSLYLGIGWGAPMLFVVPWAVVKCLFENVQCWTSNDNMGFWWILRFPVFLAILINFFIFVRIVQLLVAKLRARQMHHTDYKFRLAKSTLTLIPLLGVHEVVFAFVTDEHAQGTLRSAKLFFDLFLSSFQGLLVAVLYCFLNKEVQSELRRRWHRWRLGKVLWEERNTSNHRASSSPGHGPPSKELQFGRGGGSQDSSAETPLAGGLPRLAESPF

Q: What does the source list for YSEATLASDYSRTMDNMLKKNFVEWLLARREKKSDNVIEPY [Chicken GIP]?
A: CRE-luc reporter, HEK293T cells with the receptor: EC50 [1]: 274 nM; CRE-luc reporter, HEK293T cells with the receptor: Emax (fold induction) [1]: 32.4; CRE-luc reporter, HEK293T cells with the receptor: EC50 [2]: 69.2 nM; CRE-luc reporter, HEK293T cells with the receptor: Emax (fold induction) [2]: 6.22

Q: What does the source list for HSEGTFTSDFTRYLDKMKAKDFVHWLINT [Chicken GCRP]?
A: CRE-luc reporter, HEK293T cells with the receptor: EC50 [3]: 42.7 nM; CRE-luc reporter, HEK293T cells with the receptor: Emax (fold induction) [3]: 6.32; CRE-luc reporter, HEK293T cells with the receptor: Emax (fold induction) [4]: 3.03; CRE-luc reporter, HEK293T cells with the receptor: EC50 [5]: 592 nM; CRE-luc reporter, HEK293T cells with the receptor: Emax (fold induction) [5]: 6.32; CRE-luc reporter, HEK293T cells with the receptor: EC50 [6]: 48.9 nM; CRE-luc reporter, HEK293T cells with the receptor: Emax (fold induction) [6]: 19.8; CRE-luc reporter, HEK293T cells with the receptor: EC50 [1]: 5.86 nM; CRE-luc reporter, HEK293T cells with the receptor: Emax (fold induction) [1]: 30.1; CRE-luc reporter, HEK293T cells with the receptor: EC50 [2]: 0.87 nM; CRE-luc reporter, HEK293T cells with the receptor: Emax (fold induction) [2]: 6; CRE-luc reporter, HEK293T cells with the receptor: EC50 [7]: 33.7 nM; CRE-luc reporter, HEK293T cells with the receptor: Emax (fold induction) [7]: 8.12; CRE-luc reporter, HEK293T cells with the receptor: EC50 [8]: 0.32 nM; CRE-luc reporter, HEK293T cells with the receptor: Emax (fold induction) [8]: 5.56; CRE-luc reporter, HEK293T cells with the receptor: EC50 [9]: 9.44 nM; CRE-luc reporter, HEK293T cells with the receptor: Emax (fold induction) [9]: 62.9; CRE-luc reporter, HEK293T cells with the receptor: EC50 [10]: 8.57 nM; CRE-luc reporter, HEK293T cells with the receptor: Emax (fold induction) [10]: 7.3; CRE-luc reporter, HEK293T cells with the receptor: EC50 [11]: 8.03 nM; CRE-luc reporter, HEK293T cells with the receptor: Emax (fold induction) [11]: 19.2; IC50 [12]: 43.5 nM; cAMP level by Glosensor-22F luminescence in HEK293T cells with the receptor: EC50 [13]: 5.8 nM; IC50 [14]: 43.6 nM

Q: With YAEGTFISDYSIAMDKIHQQDFVNWLLAQKGKKNDWKHNITQ [Human GIP] as the binder, how does the CRE-luc reporter, HEK293T cells with the receptor: Emax (fold induction) [4] read?
A: 5.21

Q: For HADGTFTSDINKILDDMAAKEFLKWLINTKVTQ [Chicken GLP2], which CRE-luc reporter, HEK293T cells with the receptor: EC50 [2] is on record?
A: 33.4 nM

Q: What about the CRE-luc reporter, HEK293T cells with the receptor: Emax (fold induction) [2] of the same binder?
A: 6.26

Q: With HTDGMFTSDLTNYLDKMKAKNFVEWLAAIKQQE [Medaka GCRP] as the binder, how does the CRE-luc reporter, HEK293T cells with the receptor: EC50 [3] read?
A: 175 nM

Q: What about the CRE-luc reporter, HEK293T cells with the receptor: Emax (fold induction) [3] of the same binder?
A: 2.27

Q: What about the CRE-luc reporter, HEK293T cells with the receptor: Emax (fold induction) [4] of the same binder?
A: 2.11

Q: And the CRE-luc reporter, HEK293T cells with the receptor: EC50 [6]?
A: 156 nM

Q: What about the CRE-luc reporter, HEK293T cells with the receptor: Emax (fold induction) [6] of the same binder?
A: 20.9

Q: And the CRE-luc reporter, HEK293T cells with the receptor: EC50 [1]?
A: 94.6 nM

Q: And the CRE-luc reporter, HEK293T cells with the receptor: Emax (fold induction) [1]?
A: 32

Q: What about the CRE-luc reporter, HEK293T cells with the receptor: EC50 [2] of the same binder?
A: 68.2 nM

Q: And the CRE-luc reporter, HEK293T cells with the receptor: Emax (fold induction) [2]?
A: 6.93

Q: And the CRE-luc reporter, HEK293T cells with the receptor: EC50 [7]?
A: 6.84 nM

Q: What about the CRE-luc reporter, HEK293T cells with the receptor: Emax (fold induction) [7] of the same binder?
A: 7.9

Q: What about the CRE-luc reporter, HEK293T cells with the receptor: EC50 [15] of the same binder?
A: 6.76 nM

Q: What about the IC50 [16] of the same binder?
A: 327 nM

Q: And the cAMP level by Glosensor-22F luminescence in HEK293T cells with the receptor: EC50 [17]?
A: 1.15 nM

Q: What about the IC50 [18] of the same binder?
A: 320 nM

Q: Which results are given for HSEGTFSSDLTRYLDKMKAKDFVQWLMN [Xenopus GCRP]?
A: CRE-luc reporter, HEK293T cells with the receptor: EC50 [3]: 182 nM; CRE-luc reporter, HEK293T cells with the receptor: Emax (fold induction) [3]: 2.09; CRE-luc reporter, HEK293T cells with the receptor: Emax (fold induction) [4]: 1.95; CRE-luc reporter, HEK293T cells with the receptor: EC50 [6]: > 1000 nM; CRE-luc reporter, HEK293T cells with the receptor: Emax (fold induction) [6]: 24.1; CRE-luc reporter, HEK293T cells with the receptor: EC50 [1]: 2.24 nM; CRE-luc reporter, HEK293T cells with the receptor: Emax (fold induction) [1]: 30.4; CRE-luc reporter, HEK293T cells with the receptor: EC50 [2]: 1.18 nM; CRE-luc reporter, HEK293T cells with the receptor: Emax (fold induction) [2]: 6.25; CRE-luc reporter, HEK293T cells with the receptor: EC50 [7]: 30.6 nM; CRE-luc reporter, HEK293T cells with the receptor: Emax (fold induction) [7]: 8.1; IC50 [19]: 65.5 nM; cAMP level by Glosensor-22F luminescence in HEK293T cells with the receptor: EC50 [20]: 46 nM; IC50 [21]: 63 nM

Q: HSEGTFSNDYSKYLEDRKAQDFVRWLMNN [Medaka GCG1] was tested. Which CRE-luc reporter, HEK293T cells with the receptor: EC50 [7] did it give?
A: 108 nM

Q: And the CRE-luc reporter, HEK293T cells with the receptor: Emax (fold induction) [7]?
A: 4.26

Q: How did the CRE-luc reporter, HEK293T cells with the receptor: EC50 [8] turn out when HAEGTYTSDITSYLEGQAAKEFIAWLVNGR (also: unexplained 'a' after last residue) [Chicken GLP1] was run?
A: 18.3 nM

Q: What about the CRE-luc reporter, HEK293T cells with the receptor: Emax (fold induction) [8] of the same binder?
A: 5.8

Q: What about the CRE-luc reporter, HEK293T cells with the receptor: EC50 [9] of the same binder?
A: 2.29 nM

Q: And the CRE-luc reporter, HEK293T cells with the receptor: Emax (fold induction) [9]?
A: 91.9

Q: And the CRE-luc reporter, HEK293T cells with the receptor: EC50 [10]?
A: 1.52 nM

Q: And the CRE-luc reporter, HEK293T cells with the receptor: Emax (fold induction) [10]?
A: 12.6

Q: What about the CRE-luc reporter, HEK293T cells with the receptor: EC50 [11] of the same binder?
A: 0.2 nM

Q: And the CRE-luc reporter, HEK293T cells with the receptor: Emax (fold induction) [11]?
A: 28.2

Q: And the IC50 [19]?
A: > 1000 nM

Q: And the IC50 [12]?
A: > 1000 nM
